Assay [1] concerns the target T1, mTMPRSS6_S762A-MMH (mouse, UniProt Q9DBI0 81-811).
T1 construct: also called REGN6848; mouse TMPRSS6 extracellular domain with a S762A mutation and a C-terminal myc-myc-hexahistidine tag
Briefly: SPR, mAb captured via anti-hFc, 25 C. Here is the method:
(§1) The equilibrium dissociation constant (KD) for TMPRSS6 binding to different TMPRSS6 monoclonal antibodies (mAbs) was determined using a real-time surface plasmon resonance biosensor using a Biacore 4000 instrument. All binding studies were performed in 10 mM HEPES, 150 mM NaCl, 3 mM EDTA, and 0.05% v/v Surfactant Tween-20, pH 7.4 (HBS-ET) running buffer at 25° C. and 37° C. The Biacore CM5 sensor chip surface was first derivatized by amine coupling with a human Fc specific mouse mAb to capture different TMPRSS6 mAbs. […] Different concentrations (100 nM to 3.7 nM, 3-fold serial dilution) of the TMPRSS6 reagent proteins prepared in HBS-EP running buffer were injected over the TMPRSS6 mAb captured surface for 150 seconds at a flow rate of 30 μL/min and their dissociation in HBS-ET running buffer was monitored for 10 minutes. At the end of each cycle, the TMPRSS6 mAb captured surface was regenerated using a 12 second injection of 20 mM phosphoric acid.
(§2) The association rate (kₐ) and dissociation rate (kd) were determined by fitting the real-time binding sensorgrams to a 1:1 binding model with mass transport limitation using Scrubber 2.0 (BioLogic Software) curve-fitting software. Binding dissociation equilibrium constant (KD) and dissociative half-life (t½) were calculated from the kinetic rates as: […]
On the technique in general: Surface plasmon resonance follows binding to a sensor surface in real time, without labels.

Assay [2] addresses T1, mTMPRSS6_S762A-MMH. Put plainly: SPR, mAb captured via anti-hFc, 37 C. The protocol: as §1, §2
The target in assay [3] is T2, full length mouse TMPRSS6 on HEK293 cells (HEK293/mTMPRSS6) (mouse, UniProt Q9DBI0 1-811).
T2 construct: line sorted for high expression
T2 sequence: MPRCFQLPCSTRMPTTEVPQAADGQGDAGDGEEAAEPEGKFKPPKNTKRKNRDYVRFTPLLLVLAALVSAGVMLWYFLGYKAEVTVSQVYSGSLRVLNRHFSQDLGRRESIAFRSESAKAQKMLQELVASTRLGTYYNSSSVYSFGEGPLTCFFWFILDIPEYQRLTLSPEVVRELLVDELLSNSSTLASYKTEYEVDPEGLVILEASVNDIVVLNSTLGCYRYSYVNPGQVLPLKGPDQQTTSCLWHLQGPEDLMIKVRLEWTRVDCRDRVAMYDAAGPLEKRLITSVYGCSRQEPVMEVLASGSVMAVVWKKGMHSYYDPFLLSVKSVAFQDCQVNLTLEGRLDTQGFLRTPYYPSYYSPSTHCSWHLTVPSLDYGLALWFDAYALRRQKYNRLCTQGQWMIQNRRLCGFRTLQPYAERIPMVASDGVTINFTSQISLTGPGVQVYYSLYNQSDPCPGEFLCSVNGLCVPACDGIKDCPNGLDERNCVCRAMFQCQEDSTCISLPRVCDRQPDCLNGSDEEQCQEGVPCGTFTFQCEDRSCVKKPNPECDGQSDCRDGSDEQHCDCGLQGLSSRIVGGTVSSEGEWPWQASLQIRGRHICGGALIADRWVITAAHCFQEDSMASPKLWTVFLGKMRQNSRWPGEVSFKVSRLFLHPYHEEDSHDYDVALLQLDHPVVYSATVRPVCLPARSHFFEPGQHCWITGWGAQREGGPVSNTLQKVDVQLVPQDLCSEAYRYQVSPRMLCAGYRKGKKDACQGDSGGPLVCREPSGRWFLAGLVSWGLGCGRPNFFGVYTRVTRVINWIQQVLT
Put plainly: flow cytometry, HEK293/mTMPRSS6 cells. In general terms: In flow cytometry, cells or beads pass a laser one at a time.

In assay [4] the target is T2, full length mouse TMPRSS6 on HEK293 …. Briefly: cell-based or functional assay.
Assay [5] shares this target. Put plainly: cell-based or functional assay. The source holds these as a separate data set.

T1 sequence (Q9DBI0 other isoform, or with tags, fused parts or gaps S762A S762A): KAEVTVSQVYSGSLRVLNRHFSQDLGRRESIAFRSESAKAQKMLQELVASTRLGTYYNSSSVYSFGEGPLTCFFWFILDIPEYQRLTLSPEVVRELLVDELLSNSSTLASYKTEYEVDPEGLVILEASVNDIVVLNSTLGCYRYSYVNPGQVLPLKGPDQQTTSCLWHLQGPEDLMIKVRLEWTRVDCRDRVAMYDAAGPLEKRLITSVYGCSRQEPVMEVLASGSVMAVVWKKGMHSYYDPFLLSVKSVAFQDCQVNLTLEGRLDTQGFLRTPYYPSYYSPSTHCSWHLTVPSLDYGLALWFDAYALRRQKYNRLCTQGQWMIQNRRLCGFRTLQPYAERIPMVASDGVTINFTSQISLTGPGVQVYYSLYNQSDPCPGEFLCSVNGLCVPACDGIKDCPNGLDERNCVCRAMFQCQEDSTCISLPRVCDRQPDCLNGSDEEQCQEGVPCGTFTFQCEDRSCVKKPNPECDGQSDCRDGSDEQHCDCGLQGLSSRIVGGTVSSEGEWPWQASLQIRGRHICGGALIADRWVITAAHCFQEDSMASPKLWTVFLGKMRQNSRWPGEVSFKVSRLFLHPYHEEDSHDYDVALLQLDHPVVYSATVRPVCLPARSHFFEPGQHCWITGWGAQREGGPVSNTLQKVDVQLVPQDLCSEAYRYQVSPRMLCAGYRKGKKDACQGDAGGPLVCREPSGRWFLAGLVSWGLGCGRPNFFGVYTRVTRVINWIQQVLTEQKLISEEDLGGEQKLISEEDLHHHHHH

B1: REGN7974 (antibody, human IgG4 S228P, kappa, V domains shown)
VH: EVQLVESGGGLVQPGRSLRLSCIASGFNFGDYGMSWVRQAPGKGLEWVGFIRSKAYGGTTEYAASVKGRFTISRDDSKSIAYLQMNSLKTEDAAMYYCSRDYYDILTGYYGDYWGQGTLVTVSS
VL: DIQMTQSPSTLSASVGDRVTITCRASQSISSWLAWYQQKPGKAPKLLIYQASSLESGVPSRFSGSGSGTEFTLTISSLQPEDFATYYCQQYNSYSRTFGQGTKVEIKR
notes: fully human; human IgG4 Fc with hinge S108P; also called mAb41422
Consider B1, for which the “100 nM Ag Bound” value in the assay with mTMPRSS6_S762A-MMH [1] and with mTMPRSS6_S762A-MMH [2] was 3 RU throughout. For the same molecule, the binding result in the assay with mTMPRSS6_S762A-MMH [1] is listed as “no binding (tested: 100 nM)”; in assay [3], “no binding (tested: 375 nM)”.

B2: REGN7999 (antibody, human IgG4 S228P, kappa, V domains shown)
VH: EVQLVESGGGLVQPGGSLRLSCAASGFTFSSYAMTWVRQAPGKGLEWVSAISGSDTSTYYADSVKGRFTISRDNSKNTLFLQMNSLRAEDTAVYYCAKHQDYDFSYYYSAMDVWGQGTTVTVSS
VL: DIQMTQSPSSLSASVGDRVIITCRASQDFNSWLAWYQQKPGKAPKLLIYAASSLQSGVPSRFSGSGSGTDFTLTISSLQPEDFATYYCQQTDSFPFTFGPGTKVDIKR
notes: fully human; human IgG4 Fc with hinge S108P; also called mAb41450
On to B2, for which, in assay [4], the “% inhibition, HEK293 bioassay, 30 min pre-incubation 25 C” value came out at 88% and the “IC50, HEK293 bioassay, 30 min pre-incubation 25 C” value (“IC50 … 30 min pre-incubation 25 C” below) was 3.6 nM. In assay [5], the “% inhibition, HEK293 bioassay, overnight pre-incubation 37 C” value was 103% and the “IC50, HEK293 bioassay, overnight pre-incubation 37 C” value (“IC50 … overnight pre-incubation 37 C” for short) came to 2.1 nM. In the assay with mTMPRSS6_S762A-MMH [1], the “100 nM Ag Bound” value worked out at 178 RU; the equilibrium dissociation constant (Kd) (as a rule, the equilibrium constant for the complex coming apart) amounted to 0.0829 nM; the off-rate constant (koff) (as a rule, the first-order rate constant of dissociation) turned out to be 3.45e-05 s⁻¹; the on-rate (kon) (usually the rate constant with which the complex forms) came to 416000 M⁻¹ s⁻¹. Moreover, in the assay with mTMPRSS6_S762A-MMH [1], the t½ (in general, the time in which the quantity being followed falls by half) was found to be 334 min. For the same molecule, in the assay with mTMPRSS6_S762A-MMH [2], the “100 nM Ag Bound” value turned out to be 130 RU, the Kd amounted to 0.317 nM, the koff is 0.00016 s⁻¹ and the kon turned out to be 505000 M⁻¹ s⁻¹. The t½ with mTMPRSS6_S762A-MMH [2] came to 72 min.

B3: REGN7977 (antibody, V domains shown)
VH: EVQLVESGGGLVKPGGSLRVSCAASGVTFSNVWMSWVRQVPGKGLEWVGRIKSKTDGGTTDYAAPVKGRFTISKDDSKNTLFLQMNSLKTEDTAVYYCTTETGDFWSGYYPRFQHWGQGTLVTVSS
VL: DIQMTQSPSSLSASVGDRVTITCRASQYISTYLNWYQQKPGKAPSLLIYAASSLQSGVPSRFSGSGSGTDFTLTISSLQPEDFASYSCQQSYSTPPYTFGQGTKLEIKR
notes: fully human; human IgG4 Fc with hinge S108P; also called mAb41465
Take B3: in assay [4], the “% inhibition, HEK293 bioassay, 30 min pre-incubation 25 C” value amounted to 58% and the “IC50 … 30 min pre-incubation 25 C” value amounted to 35 nM. In addition, in assay [5], the “% inhibition, HEK293 bioassay, overnight pre-incubation 37 C” value was determined as 97% and the “IC50 … overnight pre-incubation 37 C” value was found to be 14 nM. Also, in the assay with mTMPRSS6_S762A-MMH [1], the “100 nM Ag Bound” value is 20 RU, the equilibrium dissociation constant (Kd) worked out at 233 nM, the koff amounted to 0.067 s⁻¹ and the kon stood at 288000 M⁻¹ s⁻¹. In addition, the t½ with mTMPRSS6_S762A-MMH [1] is 0.17 min. For the same molecule, in the assay with mTMPRSS6_S762A-MMH [2], the “100 nM Ag Bound” value came out at 9 RU, binding was put at a Kd of 703 nM, the koff turned out to be 0.227 s⁻¹ and the kon amounted to 323000 M⁻¹ s⁻¹. The molecule also had a t½ with mTMPRSS6_S762A-MMH [2] of 0.05 min.

B4: REGN7969 (antibody, human IgG4 S228P, kappa, V domains shown)
VH: QVQLVESGGGVVQPGRSLRLSCAASGFTFNNYGMHWVRQAPGKGLEWVAIISYDGSNEYYSDSVKGRFTISRDNSKNTLYLQMNSLRAEDTAVYYCARDQDYGGNLFHYWGQGTLVTVSS
VL: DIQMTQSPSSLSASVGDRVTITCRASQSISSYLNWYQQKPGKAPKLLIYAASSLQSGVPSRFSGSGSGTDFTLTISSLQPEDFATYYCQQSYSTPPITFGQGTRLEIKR
notes: fully human; human IgG4 Fc with hinge S108P; also called mAb37746
On to B4, for which the entries for the “100 nM Ag Bound” value with mTMPRSS6_S762A-MMH [1] and in the assay with mTMPRSS6_S762A-MMH [2] were 4 RU and 2 RU, respectively. The binding result with mTMPRSS6_S762A-MMH [1] is given as “no binding (tested: 100 nM)”; in assay [3], “no binding (tested: 375 nM)”.

B5: REGN7971 (antibody, human IgG4 S228P, kappa, V domains shown)
VH: QVQLVESGGGVVQPGRSLRLSCAASGFTFSTYGMHWVRQAPGKGLEWVAIISYDGSNDYYLDSVKGRFTISRDNSKNTLYLQMNNLRAEDTAVYYCAKDQGYGGNLFASWGQGTLVTVSS
VL: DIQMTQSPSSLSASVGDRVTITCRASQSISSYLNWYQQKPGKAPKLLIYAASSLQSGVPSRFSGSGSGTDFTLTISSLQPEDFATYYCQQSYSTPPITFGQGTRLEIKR
notes: fully human; human IgG4 Fc with hinge S108P; also called mAb37763
For B5, in assay [3], the binding result is “no binding (tested: 375 nM)”.

B6: REGN8023 (antibody, human IgG4 S228P, kappa, V domains shown)
VH: EVQLVESGGGLVKPGGSLRISCAASGFIFVDYAMHWVRQAPGKGLEWVSGISWNSGSIGYADSVKGRFTISRDNAKKSLYLQMSGLRPEDTALYYCVKSGFYYVRSYFDNWGQGTLVTVSS
VL: DIVMTQSPLSLPVTPGEPASISCRSSQSLLDSDDGNTYLDWYLRKPGQSPQLLIYTLSYRASGVPDRFSGSGSGTDFTLKISRVEADDVGVYYCMQRIEFPLTFGGGTKVEIKR
notes: fully human; human IgG4 Fc with hinge S108P; also called mAb37699
As to B6, in assay [4], the “% inhibition, HEK293 bioassay, 30 min pre-incubation 25 C” value came out at 82% and the “IC50 … 30 min pre-incubation 25 C” value amounted to 1.5 nM. In assay [5], the “% inhibition, HEK293 bioassay, overnight pre-incubation 37 C” value was found to be 98% and the “IC50 … overnight pre-incubation 37 C” value was 1.2 nM. Also, in the assay with mTMPRSS6_S762A-MMH [1], the “100 nM Ag Bound” value was determined as 209 RU, the Kd came to 1.84 nM, the koff worked out at 0.0011 s⁻¹ and the association rate constant (kon) worked out at 599000 M⁻¹ s⁻¹. The molecule further came in with a t½ in the assay with mTMPRSS6_S762A-MMH [1] of 10 min. For the same molecule, in the assay with mTMPRSS6_S762A-MMH [2], the “100 nM Ag Bound” value is 189 RU; the affinity, expressed as Kd, was 24.7 nM; the koff turned out to be 0.00666 s⁻¹; the kon was determined as 269000 M⁻¹ s⁻¹. In the assay with mTMPRSS6_S762A-MMH [2], this molecule yielded a t½ of 1.7 min.
